Common to all, as to format: biochemical
Common to all, as to details: 1 hour at 37° C.

For one experiment, the system named is human HNF-4α. Briefly: in vitro protein degradation test of HNF-4α by calpain (Western blotting). The protocol:
Using the HNF-4α expression plasmid, in vitro synthesis of HNF-4α protein was conducted using the TNT T7 Quick Coupled Transcription/Translation System (Promega, Inc.). That is, the HNF-4α expression plasmid was mixed with TNT T7 Quick Master Mix, and then incubated for 1.5 hours at 30° C. in the presence of methionine to synthesize HNF-4α.
The in vitro protein degradation test was carried out by adding m-calpain extracted from rabbit muscle (Protease, Calcium-Activated Neutral (calpain), Sigma Chemical Co.) at a final concentration of 50 μg/mL to the synthesized HNF-4α, and then incubating for 1 hour at 37° C. in the presence of 200 mM Tris-HCl (pH 7.8)/1 mM dithiothreitol (DTT)/6 mM CaCl2. To conduct a degradation test in the absence of calcium, a test sample was prepared by adding 10 mM ethylenediaminetetraacetic acid (EDTA) instead of 6 mM CaCl2, and the sample was then incubated in a similar manner. The samples after incubation were added to an equal volume of 2× sodium dodecyl sulfate (SDS) sample buffer (4% SDS/125 mM Tris-HCl, pH 6.8/20% glycerol/0.01% bromphenol blue (BPB)/10% β-mercaptoethanol), heated for 5 minutes, and subjected to 10% SDS-PAGE for separation. Thereafter, Western blotting was carried out to detect HNF-4α using anti-HNF-4α antibody/HNF-4α (C-19) antibody (Santa Cruz Biotechnology, Inc.) and anti-Xpress antibody (Invitrogen, Inc.). An ECL Western blotting detection kit (Amersham pharmacia biotech) was used for the detection.
The final concentration of human m-calpain in the reaction system was 2.33 mg/mL as the protein concentration of the lysate of sf-9 cells that expressed human m-calpain. The final concentration of rat m-calpain in the reaction system was 59 units/mL. A degradation test was also conducted in the same manner without addition of calpain. Further, to test for degradation in the absence of calcium, a sample was prepared by adding 10 mM of EDTA instead of 6 mM CaCl2, and a degradation test was conducted with the sample in a similar manner. The samples after incubation were added to an equal volume of 2×SDS sample buffer, heated for 5 minutes, and subjected to 5-20% SDS-PAGE for separation. Thereafter, Western blotting was carried out to detect HNF-4α using anti-HNF-4α antibody/HNF-4α (C-19) antibody. An ECL Western blotting detection kit was used for the detection.
An in vitro protein degradation test was carried out by adding μ-calpain to HNF-4α at a final concentration of 50 units/mL, and incubating for 1 hour at 37° C. in the presence of 200 mM Tris-HCl (pH 7.8)/1 mM DTT/6 mM CaCl2. […]
On the technique in general: A western blot detects proteins with antibodies after separation by electrophoresis.

Another experiment concerns human HNF-1α. In words: in vitro protein degradation test of HNF-1α by calpain (Western blotting). The protocol: Using the HNF-1α expression plasmid, in vitro synthesis of HNF-1α protein was carried out using the TNT T7 Quick Coupled Transcription/Translation System. That is, the HNF-1α expression plasmid was mixed with TNT T7 Quick Master Mix, and then incubated for 1.5 hours at 30° C. in the presence of methionine to synthesize HNF-1α. Thereafter, immunoprecipitation was conducted by adding anti-Xpress antibody to the synthesized HNF-1α, mixing by inversion for 1 hour at 4° C., and then adding Protein G Sepharose 4 Fast Flow and mixing by inversion for an additional 1 hour at 4° C. Subsequently, Protein G Sepharose was collected by centrifugation and washed 3 times with washing buffer (50 mM Tris-HCl, pH 7.5/150 mM NaCl/0.2% Nonidet P-40), followed by rinsing with 200 mM Tris-HCl (pH 7.8) to obtain the HNF-1α sample as 20% slurry (hereunder, referred to as “HNF-1α slurry”).
Protein degradation tests were carried out in vitro by adding μ-calpain or m-calpain to the HNF-1α slurry, and incubating for 1 hour at 37° C. in the presence of 200 mM Tris-HCl (pH 7.8)/1 mM DTT/6 mM CaCl2. The final concentrations of the respective calpain in the reaction system were as follows: 50 units/mL of human μ-calpain; 50 μg/mL of rabbit m-calpain as a protein concentration; and 59 units/mL of rat m-calpain. For a control experiment, an HNF-1α slurry was incubated without the addition of calpain in a similar manner in the presence of calcium. Further, to test for protein degradation in the absence of calcium, a sample was prepared by adding 10 mM of EDTA instead of 6 mM of CaCl2 and was incubated in the same manner. The samples after incubation were added to an equal volume of 2×SDS sample buffer, heated for 5 minutes, and then subjected to 5-20% SDS-PAGE for separation. Thereafter, Western blotting was carried out to detect HNF-1α using anti-Omni/M21 antibody (Santa Cruz Biotechnology, Inc.), which recognizes a His-Xpress region, and anti-HNF-1α antibody/HNF-1α (C-19) antibody (Santa Cruz Biotechnology, Inc.). An ECL Western blotting detection kit was used for conducting the detection.
In-vitro protein degradation tests were carried out in the same manner as in Example 7, but the lysate of sf-9 cells that coexpressed m-calpain with calpain small subunit 1 was used as m-calpain. The final concentration of the lysate of the sf-9 cells that expressed these proteins in the reaction system was 1.75 mg/mL as a protein concentration. The final concentration of rat m-calpain in the reaction system was 59 units/mL. Detection of HNF-1α was performed in the same manner as Example 7, but only anti-HNF-1α antibody/HNF-1α (C-19) antibody was used.

The next experiment has as its system human IPF-1. Briefly: in vitro protein degradation test of IPF-1 by calpain (Western blotting). The protocol:
Using the IPF-1 expression plasmid, synthesis of IPF-1 protein was carried out in vitro using the TNT T7 Quick Coupled Transcription/Translation System. That is, the IPF-1 expression plasmid was mixed with TNT T7 Quick Master Mix, and then incubated for 1.5 hours at 30° C. in the presence of methionine to synthesize IPF-1.
Protein degradation tests were carried out in vitro by adding μ-calpain or m-calpain to IPF-1, and incubating for 1 hour at 37° C. in the presence of 200 mM Tris-HCl (pH 7.8)/1 mM DTT/6 mM CaCl2. The final concentrations of each calpain in the reaction systems were as follows: 50 units/mL of human μ-calpain; 50 μg/mL of rabbit m-calpain as a protein concentration, and 59 units/mL of rat m-calpain. For a control experiment, IPF-1 was incubated without addition of calpain in the same manner in the presence of calcium. Further, to test for protein degradation in the absence of calcium, a sample was prepared by adding 10 mM of EDTA instead of 6 mM of CaCl2, and incubated in the same manner. The samples after incubation were added to an equal volume of 2×SDS sample buffer, heated for 5 minutes, and subjected to 5-20% SDS-PAGE for separation. Thereafter, Western blotting was carried out to detect IPF-1 using anti-Xpress antibody and anti-IPF1 (PDX-1) antibody/N-18 (Santa Cruz Biotechnology, Inc.). The ECL Western blotting detection kit was used for conducting the detection.
In-vitro protein degradation tests were carried out in the same manner as Example 10, but the lysate of sf-9 cells that coexpressed m-calpain with calpain small subunit 1 was used as m-calpain. The final concentration of the lysate of sf-9 cells that expressed these proteins in the reaction system was 2.33 mg/mL as a protein concentration. The final concentration of rat m-calpain in the reaction system was 59 units/mL. Detection of IPF-1 was performed in the same manner as Example 10, but only anti-IPF-1 antibody/N-18 was used.

The mark [1] stands for this setting: in the absence of calcium (10 mM EDTA instead of CaCl2).
Where [2] appears, read: in the presence of calcium (6 mM CaCl2), Western blotting.

B1: human μ-calpain: μ-Calpain extracted from human erythrocytes (Calpain 1, human erythrocytes; Calbiochem, Inc.) (protein, UniProt P07384 2-714; P04632 1-268, looked up)
Calpain-1 catalytic subunit: SEEIITPVYCTGVSAQVQKQRARELGLGRHENAIKYLGQDYEQLRVRCLQSGTLFRDEAFPPVPQSLGYKDLGPNSSKTYGIKWKRPTELLSNPQFIVDGATRTDICQGALGDCWLLAAIASLTLNDTLLHRVVPHGQSFQNGYAGIFHFQLWQFGEWVDVVVDDLLPIKDGKLVFVHSAEGNEFWSALLEKAYAKVNGSYEALSGGSTSEGFEDFTGGVTEWYELRKAPSDLYQIILKALERGSLLGCSIDISSVLDMEAITFKKLVKGHAYSVTGAKQVNYRGQVVSLIRMRNPWGEVEWTGAWSDSSSEWNNVDPYERDQLRVKMEDGEFWMSFRDFMREFTRLEICNLTPDALKSRTIRKWNTTLYEGTWRRGSTAGGCRNYPATFWVNPQFKIRLDETDDPDDYGDRESGCSFVLALMQKHRRRERRFGRDMETIGFAVYEVPPELVGQPAVHLKRDFFLANASRARSEQFINLREVSTRFRLPPGEYVVVPSTFEPNKEGDFVLRFFSEKSAGTVELDDQIQANLPDEQVLSEEEIDENFKALFRQLAGEDMEISVKELRTILNRIISKHKDLRTKGFSLESCRSMVNLMDRDGNGKLGLVEFNILWNRIRNYLSIFRKFDLDKSGSMSAYEMRMAIESAGFKLNKKLYELIITRYSEPDLAVDFDNFVCCLVRLETMFRFFKTLDTDLDGVVTFDLFKWLQLTMFA
Calpain small subunit 1: MFLVNSFLKGGGGGGGGGGGLGGGLGNVLGGLISGAGGGGGGGGGGGGGGGGGGGGTAMRILGGVISAISEAAAQYNPEPPPPRTHYSNIEANESEEVRQFRRLFAQLAGDDMEVSATELMNILNKVVTRHPDLKTDGFGIDTCRSMVAVMDSDTTGKLGFEEFKYLWNNIKRWQAIYKQFDTDRSGTICSSELPGAFEAAGFHLNEHLYNMIIRRYSDESGNMDFDNFISCLVRLDAMFRAFKSLDKDGTGQIQVNIQEWLQLTMYS
Consider B1, for which the “degradation of HNF-4α” value with human HNF-4α (setting [1]) is on record as “not observed”; in the experiment on human HNF-4α (setting [2]) it was “observed”. Also, the “degradation of HNF-1α” value was “not degraded” in the experiment on human HNF-1α (setting [1]) and “observed” in the experiment with human HNF-1α (setting [2]). For the same molecule, the entries for the “degradation of IPF-1” value with human IPF-1 (setting [1]) and in the experiment on human IPF-1 (setting [2]) were “not degraded” and “observed”, respectively.

B2: rat m-calpain: rat m-calpain (Calpain 2, rat recombinant, E. coli, Calbiochem, Inc.), positive control (protein)
chain: MAGIAMKLAKDREAAEGLGSHERAIKYLNQDYETLRNECLEAGALFQDPSFPALPSSLGFKELGPYSSKTRGIEWKRPTEICADPQFIIGGATRTDICQGALGDCWLLAAIASLTLNEEILARVVPLDQSFQENYAGIFHFQFWQYGEWVEVVVDDRLPTKDGELLFVHSAEGSEFWSALLEKAYAKINGCYEALSGGATTEGFEDFTGGIAEWYELRKPPPNLFKIIQKALEKGSLLGCSIDITSAADSEAVTYQKLVKGHAYSVTGAEEVESSGSLQKLIRIRNPWGQVEWTGKWNDNCPSWNTVDPEVRANLTERQEDGEFWMSFSDFLRHYSRLEICNLTPDTLTCDSYKKWKLTKMDGNWRRGSTAGGCRNYPNTFWMNPQYLIKLEEEDEDDEDGERGCTFLVGLIQKHRRRQRKMGEDMHTIGFGIYEVPEELTGQTNIHLSKNFFLTTRARERSDTFINLREVLNRFKLPPGEYVLVPSTFEPHKNGDFCIRVFSEKKADYQTVDDEIEANIEEIEANEEDIGDGFRRLFAQLAGEDAEISAFELQTILRRVLAKREDIKSDGFSIETCKIMVDMLDEDGSGKLGLKEFYILWTKIQKYQKIYREIDVDRSGTMNSYEMRKALEEAGFKLPCQLHQVIVARFADDELIIDFDNFVRCLVRLEILFKIFKQLDPENTGTIQLDLISWLSFSVL
Take B2: the “degradation of HNF-1α” value was “not degraded” in the experiment with human HNF-1α (setting [1]) and “observed” in the experiment on human HNF-1α (setting [2]). Besides, the “degradation of IPF-1” value is on record as “not degraded” in the experiment with human IPF-1 (setting [1]) and “observed” in the experiment with human IPF-1 (setting [2]).

(Values after patent US20070004636A1, “Method of degrading transcriptional factors of saccharometabolism-associated gene, method for inhibiting the degradation, and agent for inhibiting degradation and degradation inhibitor” (priority 2002, published 2007).)
